Measurements taken from US20150203577A1 (Chugai, published 2015).
Where a chain is given by its changes, count along the chain named. In names and notes the source's numbering stands. Several values for one entry are separate records, joined by “and”; a condition that tells them apart may be missing. Equal entries are not always repeated.

B1: H237-MB687/MRAL-k0 (antibody, mouse IgG1, kappa)
heavy: QVQLQESGPGLVKPSETLSLTCAVSGHSISHDHAWSWVRQPPGEGLEWIGFISYSGITNYNPSLQGRVTISRDNSKNTLYLQMNSLRAEDTAVYYCARSLARTTAMDYWGEGTLVTVSSAKTTPPSVYPLAPGSAAQTNSMVTLGCLVKGYFPEPVTVTWNSGSLSSGVHTFPAVLQSDLYTLSSSVTVPSSTWPSETVTCNVAHPASSTKVDKKIVPRDCGCKPCICEPPEVELVFIFPPKPKDVLTITLTPKVTCVVVDISKDDPEVQFSWFVDDVEVHTAQTQPREEQFNSTFRSVSELPIMHQDWLNGKEFKCRVNSAAFPAPIEKTISKTKGRPKAPQVYTIPPPKEQMAKDKVSLTCMITDFFPEDITVEWQWNGQPAENYKNTQPIMDTDGSYFVYSKLNVQKSNWEAGNTFTCSVLHEGLHNHHTEKSLSHSPGK
light: not shown
notes: copies: 2 + 2
B2: H237-MB599/MRAL-k0 (antibody, mouse IgG1, kappa)
heavy: B1 heavy with P230V, V233E, E234S, L235F
light: not shown
notes: copies: 2 + 2
B3: H237-MB600/MRAL-k0 (antibody, mouse IgG1, kappa)
heavy: B1 heavy with P230V, V233E, E234S, L235W
light: not shown
notes: copies: 2 + 2
B4: H237-MB601/MRAL-k0 (antibody, mouse IgG1, kappa)
heavy: B1 heavy with P230V, V233E, E234S, L235S, F237D
light: not shown
notes: copies: 2 + 2
B5: H237-MB611/MRAL-k0 (antibody, mouse IgG1, kappa)
heavy: B1 heavy with E229T, P230V, V233E, E234D, L235E
light: not shown
notes: copies: 2 + 2
B6: H237-MB617/MRAL-k0 (antibody, mouse IgG1, kappa)
heavy: B1 heavy with E229T, P230V, V233E, E234S, L235D, F237D
light: not shown
notes: copies: 2 + 2
B7: H237-MB618/MRAL-k0 (antibody, mouse IgG1, kappa)
heavy: B1 heavy with E229T, P230V, V233E, E234D, L235D
light: not shown
notes: copies: 2 + 2
B8: H237-MB623/MRAL-k0 (antibody, mouse IgG1, kappa)
heavy: B1 heavy with P230A, P231Y
light: not shown
notes: copies: 2 + 2
B9: H237-MB624/MRAL-k0 (antibody, mouse IgG1, kappa)
heavy: B1 heavy with P230D, P231Y
light: not shown
notes: copies: 2 + 2
B10: H237-MB625/MRAL-k0 (antibody, mouse IgG1, kappa)
heavy: B1 heavy with P230N, P231Y
light: not shown
notes: copies: 2 + 2
B11: H237-MB626/MRAL-k0 (antibody, mouse IgG1, kappa)
heavy: B1 heavy with P230T, P231Y
light: not shown
notes: copies: 2 + 2
B12: H237-MB638/MRAL-k0 (antibody)
heavy: B1 heavy with E229I, P231A, L235N
light: not shown
notes: 'T2301' read as T230I; copies: 2 + 2
B13: H237-MB640/MRAL-k0 (antibody, mouse IgG1, kappa)
heavy: B1 heavy with E229Q, P231N, L235N
light: not shown
notes: copies: 2 + 2
B14: H237-MB641/MRAL-k0 (antibody, mouse IgG1, kappa)
heavy: B1 heavy with P230A, P231Y, L235Y
light: not shown
notes: copies: 2 + 2
B15: H237-MB642/MRAL-k0 (antibody, mouse IgG1, kappa)
heavy: B1 heavy with P230D, P231Y, L235Y
light: not shown
notes: copies: 2 + 2
B16: H237-MB643/MRAL-k0 (antibody, mouse IgG1, kappa)
heavy: B1 heavy with P230N, P231Y, L235Y
light: not shown
notes: copies: 2 + 2
B17: H237-MB647/MRAL-k0 (antibody)
heavy: B1 heavy with E229I, P231A, L235Y
light: not shown
notes: as for B12
B18: H237-MB657/MRAL-k0 (antibody, mouse IgG1, kappa)
heavy: B1 heavy with P231N, L235F
light: not shown
notes: copies: 2 + 2
B19: H237-MB658/MRAL-k0 (antibody, mouse IgG1, kappa)
heavy: B1 heavy with E229Q, P231N, L235F
light: not shown
notes: copies: 2 + 2
B20: H237-MB685/MRAL-k0 (antibody, mouse IgG1, kappa)
heavy: B1 heavy with E229T, P231A
light: not shown
notes: copies: 2 + 2
B21: H237-MB688/MRAL-k0 (antibody, mouse IgG1, kappa)
heavy: B1 heavy with E229T, P230V, P231Y, L235N
light: not shown
notes: copies: 2 + 2
B22: H237-MB690/MRAL-k0 (antibody, mouse IgG1, kappa)
heavy: B1 heavy with E229T, P231A, L235Y
light: not shown
notes: copies: 2 + 2
B23: H237-MB691/MRAL-k0 (antibody, mouse IgG1, kappa)
heavy: B1 heavy with P230V, P231A, L235Y
light: not shown
notes: copies: 2 + 2
B24: H237-MB692/MRAL-k0 (antibody, mouse IgG1, kappa)
heavy: B1 heavy with L235Y
light: not shown
notes: copies: 2 + 2
B25: H237-MB693/MRAL-k0 (antibody, mouse IgG1, kappa)
heavy: B1 heavy with E229T, P230D, P231Y, L235Y
light: not shown
notes: copies: 2 + 2

These binders were tested against T1, mouse FcγRII (mouse, UniProt P08101 30-210) (assay: SPR (Biacore), antibody captured on Protein L).
T1 construct: Extracellular domain with C-terminal His tag, made in FreeStyle 293 cells; also called mFcγRII; mFcgRII
T1 sequence: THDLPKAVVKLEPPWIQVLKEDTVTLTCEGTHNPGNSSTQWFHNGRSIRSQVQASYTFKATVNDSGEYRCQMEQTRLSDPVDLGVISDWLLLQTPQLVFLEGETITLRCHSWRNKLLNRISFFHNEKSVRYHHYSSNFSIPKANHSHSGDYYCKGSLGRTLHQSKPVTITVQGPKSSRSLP
Description: (§1) Each altered antibody was analyzed for its interaction with each Fcγ receptor prepared above using Biacore T100 (GE Healthcare Japan Corp.), Biacore T200 (GE Healthcare Japan Corp.), Biacore A100, or Biacore 4000. The running buffer used was HBS-EP+ (GE Healthcare Japan Corp.). The assay temperature was set to 25° C. The sensor chips used were chips prepared by immobilizing Protein L (ACTIGEN or BioVision) onto Series S Sensor Chip CM5 (GE Healthcare Japan Corp.) or Series S Sensor Chip CM4 (GE Healthcare Japan Corp.) by the amine coupling method.
(§2) In order to calculate the KD value of each altered antibody for FcγR, kinetic analysis was conducted according to the following method: first, the antibody of interest was captured onto any of these chips and allowed to interact with mFcγR diluted with a running buffer. For the obtained sensorgram, the assay results were globally fit into the 1:1 Langmuir binding model using Biacore Evaluation Software to calculate an association rate constant ka (L/mol/s) and a dissociation rate constant kd (1/s). From these values, the dissociation constant KD (mol/L) was calculated.

Row | Binder | Kd
1 | B1 | 345 nM
2 | B2 | 306 nM
3 | B3 | 171 nM
4 | B4 | 389 nM
5 | B5 | 192 nM
6 | B6 | 255 nM
7 | B7 | 156 nM
8 | B8 | 395 nM
9 | B9 | 263 nM
10 | B10 | 312 nM
11 | B11 | 261 nM
12 | B12 | 280 nM
13 | B13 | 197 nM
14 | B14 | 143 nM
15 | B15 | 197 nM
16 | B16 | 126 nM
17 | B17 | 200 nM
18 | B18 | 118 nM and 211 nM
19 | B19 | 415 nM
20 | B20 | 537 nM
21 | B21 | 513 nM
22 | B22 | 204 nM
23 | B23 | 559 nM
24 | B24 | 186 nM
25 | B25 | 267 nM

Target: T2, mouse FcγRIII (mouse, UniProt P08508 31-215)
T2 construct: Extracellular domain with C-terminal His tag, made in FreeStyle 293 cells; also called mFcγRIII; mFcgRIII
T2 chain: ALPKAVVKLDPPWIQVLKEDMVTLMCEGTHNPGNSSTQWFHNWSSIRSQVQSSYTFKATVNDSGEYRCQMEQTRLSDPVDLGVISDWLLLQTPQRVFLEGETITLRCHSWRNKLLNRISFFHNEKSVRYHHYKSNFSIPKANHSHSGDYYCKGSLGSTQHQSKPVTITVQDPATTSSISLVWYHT
Assay: SPR (Biacore), antibody captured on Protein L
Description: as §1, §2

Row | Binder | Kd
26 | B1 | 5320 nM
27 | B2 | 3020 nM
28 | B3 | 1270 nM
29 | B4 | 3230 nM
30 | B5 | 3420 nM
31 | B6 | 2100 nM
32 | B7 | 2730 nM
33 | B8 | 3170 nM
34 | B9 | 2870 nM
35 | B10 | 2310 nM
36 | B11 | 2370 nM
37 | B12 | 3380 nM
38 | B13 | 1550 nM
39 | B14 | 2100 nM
40 | B15 | 5110 nM
41 | B16 | 2000 nM
42 | B17 | 2800 nM
43 | B18 | 3480 nM and 5870 nM
44 | B19 | 4880 nM
45 | B20 | 5490 nM
46 | B21 | 6300 nM
47 | B22 | 2710 nM
48 | B23 | 7180 nM
49 | B24 | 4440 nM
50 | B25 | 5410 nM

The binders below were run against T1, mouse FcγRII (assay: SPR (Biacore), KD of H237-mIgG1/MRAL-k0 (same run) / KD of variant).
Description: as §1, §2

Row | Binder | relative mFcγRII-binding activity (mIgG1 = 1) [fold]
51 | B1 | 0.94
52 | B2 | 0.7
53 | B3 | 1.24
54 | B4 | 0.55
55 | B5 | 1.11
56 | B6 | 0.84
57 | B7 | 1.63
58 | B8 | 0.59
59 | B9 | 0.88
60 | B10 | 0.74
61 | B11 | 0.89
62 | B12 | 0.83
63 | B13 | 1.17
64 | B14 | 1.62
65 | B15 | 1.65
66 | B16 | 1.83
67 | B17 | 1.16
68 | B19 | 0.56
69 | B20 | 0.61
70 | B21 | 0.63
71 | B22 | 1.6
72 | B23 | 0.58
73 | B24 | 1.75
74 | B25 | 1.22

Target: T2, mouse FcγRIII
Assay: as above
Description: as §1, §2

Row | Binder | relative mFcγRIII-binding activity (mIgG1 = 1) [fold]
75 | B1 | 0.1
76 | B2 | 0.11
77 | B3 | 0.25
78 | B4 | 0.1
79 | B5 | 0.09
80 | B6 | 0.15
81 | B7 | 0.13
82 | B8 | 0.1
83 | B9 | 0.11
84 | B10 | 0.14
85 | B11 | 0.14
86 | B12 | 0.1
87 | B13 | 0.21
88 | B14 | 0.15
89 | B15 | 0.1
90 | B16 | 0.16
91 | B17 | 0.12
92 | B18 | 0.09
93 | B19 | 0.07
94 | B20 | 0.09
95 | B21 | 0.08
96 | B22 | 0.19
97 | B23 | 0.07
98 | B24 | 0.12
99 | B25 | 0.09
